The record followed here is US20230065306A1 (INHIBRX, published 2023).

For test [1], the target named is T1, human CD123 (full-length, on cells) (human, UniProt P26951 19-378).
T1 construct: also called CD123-FL; interleukin-3 receptor alpha chain
Briefly: flow cytometry, HEK 293 cells transfected with full-length CD123 (CD123-FL); Median RL-1H. As for the experimental part: (§1) Binding of sdAbs to human CD123 was assessed by flow cytometry. […] HEK 293 cells were transiently transfected with a plasmid encoding full-length CD123 (UniProt Accession No. P26951-1; mature form, SEQ ID NO: 1) and used as the positive cell line in FIGS. 2A to 2M, and untransfected HEK 293 cells were used as CD123-negative cells. In FIG. 2N, Molm-13 cells, which express CD123, were used as the positive cell line. Each cell type was plated at 30,000 cells/well in FACS buffer (PBS 1% BSA, 0.1% NaN₃ pH 7.4) on a 96-well round-bottom plate. The sdAbs were diluted in FACS buffer in a 3-fold, 11 point serial dilution. The sdAb dilutions were added to the plated cells, and assay plates were incubated for 30 minutes at 4° C. After washing twice in 150 μL of FACS buffer, cells in each well were resuspended in 100 μL of 1:2000 Alexa Fluor 647-conjugated Anti-Human IgG secondary diluted in FACS buffer and incubated at 4° C. for 30 minutes. The cells were washed twice more, then bound antibody was detected by flow cytometry.
(§2) Flow cytometric analysis was performed on an Intellicyte iQue Plus and fluorescence was plotted as median fluorescence intensity. The apparent affinity (Kd, nM) was determined using one site binding non-linear regression in PRISM graph software.
(In general: In flow cytometry, cells or beads pass a laser one at a time.)
Target sequence in this assay (P26951 19-378): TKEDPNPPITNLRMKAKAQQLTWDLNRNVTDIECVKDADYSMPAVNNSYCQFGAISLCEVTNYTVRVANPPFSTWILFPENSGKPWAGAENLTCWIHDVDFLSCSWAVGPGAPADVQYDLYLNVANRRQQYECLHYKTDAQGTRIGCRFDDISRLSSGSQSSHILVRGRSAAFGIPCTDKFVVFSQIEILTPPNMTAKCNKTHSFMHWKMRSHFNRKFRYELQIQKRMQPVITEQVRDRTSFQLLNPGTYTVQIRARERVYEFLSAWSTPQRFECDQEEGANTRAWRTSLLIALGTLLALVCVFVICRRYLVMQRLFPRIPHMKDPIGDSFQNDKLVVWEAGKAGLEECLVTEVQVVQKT

Test [2] addresses T1, human CD123 (full-length, on cells). In words: flow cytometry on HEK 293 cells transfected with full-length CD123; apparent Kd, one-site fit. As for the experimental part: as §1, §2
Target sequence in this assay (P26951 19-378): as above
Test [3] deals with T2, CD123-his.
T2 construct: also called histidine tagged human CD123; His-tagged CD123 ECD
T2 extracellular domain with C-terminal His tag: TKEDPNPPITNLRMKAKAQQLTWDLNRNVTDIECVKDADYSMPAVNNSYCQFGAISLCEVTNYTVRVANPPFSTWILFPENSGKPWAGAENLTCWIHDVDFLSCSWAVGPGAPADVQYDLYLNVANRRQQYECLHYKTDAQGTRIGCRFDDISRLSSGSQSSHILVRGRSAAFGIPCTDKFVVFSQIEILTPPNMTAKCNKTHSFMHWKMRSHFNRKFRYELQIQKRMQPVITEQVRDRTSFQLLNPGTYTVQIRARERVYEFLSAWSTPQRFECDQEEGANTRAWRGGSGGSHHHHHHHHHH
Briefly: BLI, CD123-his on Ni-NTA sensors preloaded with hz1B11v28, second sdAb 100 nM. The protocol:
(§3) The epitopes of single domain antibodies (sdAbs) that comprise VHH domains that bind CD123 were compared using Bio-Layer Interferometry. 5 ug/mL of histidine tagged human CD123 was immobilized on Nickel-nitrilotriacetic acid (Ni-NTA) coated capture sensors. 100 nM of one sdAb was then loaded onto the CD123 antigen and allowed to come to equilibrium. The sensors were then transferred into 100 nM of a second sdAb.

For test [4], the target named is T2, CD123-his. Briefly: BLI, CD123-his on Ni-NTA sensors preloaded with hzA5v2, second sdAb 100 nM. The protocol: as §3
In general terms: Biolayer interferometry detects binding as a change in optical thickness at a sensor tip.

For test [5], the target named is T1, human CD123 (full-length, on cells). In words: flow cytometry blocking assay, sdAb titrated on CD123-expressing HEK-293 cells with a fixed amount of IL-3-mFc. The protocol: (§4) Certain CD123-binding sdAbs were tested for the ability to block CD123 binding to IL-3 by titrating the sdAb onto CD123 expressing HEK-293 cells in the presence of a fixed amount of recombinant IL-3-mFc. Bound IL-3 was detected by flow cytometry using fluorophore conjugated anti-mouse IgG specific secondary antibody.

Test [6] has the same target. The test is described as above. As for the experimental part:
as §4
The source holds these as a separate data set.

The target is the same in test [7]. In words: flow cytometry, Molm-13 cells expressing CD123; Median RL1-H. As for the experimental part:
as §1, §2

The target is the same in test [8]. Briefly: flow cytometry on Molm-13 cells, which express CD123; apparent Kd, one-site fit; apparent Kd by flow cytometry on CD123-expressing cells; the places shown do not name the cell line for this sdAb. As for the experimental part: as §1, §2

Like-named read-outs stand apart in the source and are kept apart here.

The term EC50 (read off the curve) denotes the concentration needed to bring the measured effect to its halfway point. Read a high EC50 (read off the curve) as a need for much substance.

B1: hz4F2v3-IgG1 (Fc fusion)
chain: EVQLVESGGGEVQPGGSLRLSCAASGRTVSNYPMAWFRQAPGKEREFVAHISWSGITSILNSVNDRFTISRDNAKNTIYLQMSSLRAEDTAVYYCAAAQRPTAGPKGPFGYWGQGTLVTVDKTHTCPPCPAPGGPSVFLFPPKPKDTLMISRTPEVTCVVVDVSHEDPEVKFNWYVDGVEVHNAKTKPREEQYNSTYRVVSVLTVLHQDWLNGKEYKCKVSNKALPAPIEKTISKAKGQPREPQVYTLPPSRDELTKNQVSLTCLVKGFYPSDIAVEWESNGQPENNYKTTPPVLDSDGSFFLYSKLTVDKSRWQQGNVFSCSVMHEALHNHYTQKSLSLSPGK
notes: also called hz4F2v3 sdAb
In the case of B1, the “EC50 (read off the curve)” value in test [1] was in the range of 2 to 3 nM. For the same molecule, the Kd in test [2] came out at 2.4 nM. In addition, the binding result with CD123-his [3] was “binds”.

B2: hz1F5v1-IgG1 (Fc fusion)
chain: EVQLVESGGGEVQPGGSLRLSCAASGRAINMYAMGWFRQAPGKEREFVAAINWNGAYTQYAESVKGRFTISRDNAKNTLYLQMSSLRAEDTAVYYCSADADYNTYVSPNKRVSYWGQGTLVTVDKTHTCPPCPAPGGPSVFLFPPKPKDTLMISRTPEVTCVVVDVSHEDPEVKFNWYVDGVEVHNAKTKPREEQYNSTYRVVSVLTVLHQDWLNGKEYKCKVSNKALPAPIEKTISKAKGQPREPQVYTLPPSRDELTKNQVSLTCLVKGFYPSDIAVEWESNGQPENNYKTTPPVLDSDGSFFLYSKLTVDKSRWQQGNVFSCSVMHEALHNHYTQKSLSLSPGK
Consider B2, for which the “EC50 (read off the curve)” value in test [1] was around 0.6 nM. The binding result with CD123-his [4] is “binds”. Further, the Kd in test [2] worked out at 0.58 nM. In addition, the “IC50 (read off the curve)” value in test [5] was around 1 nM.

B3: C5-IgG1 (Fc fusion)
chain: QVTLRESGGGLVQAGGSLRLSCKGSGRAINTYAMGWFRQAPGKEREFVAAISWNGGHTRYADSVQGRFAISRDNADNTMYLQMNSLKPEDTAVYHCAAYSDYHRIATMEADADSWGQGTQVTVDKTHTCPPCPAPGGPSVFLFPPKPKDTLMISRTPEVTCVVVDVSHEDPEVKFNWYVDGVEVHNAKTKPREEQYNSTYRVVSVLTVLHQDWLNGKEYKCKVSNKALPAPIEKTISKAKGQPREPQVYTLPPSRDELTKNQVSLTCLVKGFYPSDIAVEWESNGQPENNYKTTPPVLDSDGSFFLYSKLTVDKSRWQQGNVFSCSVMHEALHNHYTQKSLSLSPGK
notes: also called sdAb C5
As for B3, the “EC50 (read off the curve)” value in test [1] was around 1 nM. In addition, the “IC50 (read off the curve)” value in test [6] is around 2 nM; in test [5] it was around 0.7 nM. For the same molecule, the binding result with CD123-his [4] is reported as “binds”.

B4: hz1F5v6-IgG1 (Fc fusion)
chain: EVQLVESGGGEVQPGGSLRLSCAASGRAINMYAMGWFRQAPGKEREFVAAINWNAAYTQYAESVKGRFTISRDNAKNTLYLQMSSLRAEDTAVYYCSADADYNTYVSPNKRVSYWGQGTLVTVKPDKTHTCPPCPAPGGPSVFLFPPKPKDTLMISRTPEVTCVVVDVSHEDPEVKFNWYVDGVEVHNAKTKPREEQYNSTYRVVSVLTVLHQDWLNGKEYKCKVSNKALPAPIEKTISKAKGQPREPQVYTLPPSRDELTKNQVSLTCLVKGFYPSDIAVEWESNGQPENNYKTTPPVLDSDGSFFLYSKLTVDKSRWQQGNVFSCSVMHEALHNHYTQKSLSLSPGK
With B4, in test [7], the “EC50 (read off the curve)” value is around 1 nM. Further, the Kd in test [8] came out at 1.36 nM.
